Laboratory results from the DeepSol protein solubility set.

Experiment: soluble on expression in E. coli; label from the status in PepcDB or PDB records

Sequence	soluble on expression in E. coli
MGSDKIHHHHHHMSGPGTYSPPSSRLQYLGCCAGVAGARLVPGPLGGRFPFSNCVLVEDAGFKVLVDTGCEPWERGLVDVDVVVFTHFHPDHIRGFHRLRAGRVAAPEGEEPYAGRLERLALRFAGERWREWISMARLVMDLEGVPEPGEYFRPGEDLCFRGVCIKTYPARGHLQTHTLLELPGGLVHLVDIDLTGFGPWYGNPEASPELFLLDIEAAAEMEARGYLSAHKDRVYSRGEGVEALARFAGRLVEQAEGVYKALEAAGRPLWPWELTGRGIIYRRYLEGMEAIMSYFEGVMIEKLLGLLGLWGCTRKTPGGYVARDCHLGVIKDRITRNILSLA	not soluble
MAAGSEATTPVIVAAGAGGEEGEHVKPFKPEKAKEIIMSLQQPAIFCNMVFDWPARHWNAKYLSQVLHGKQIRFRMGMKSMSTVPQFETTCNYVEATLEEFLTWNCDQSSISGPFRDYDHSKFWAYADYKYFVSLFEDKTDLFQDVKWSDFGFPGRNGQESTLWIGSLGAHTPCHLDSYGCNLVFQVQGRKRWHLFPPEDTPFLYPTRIPYEESSVFSKINVVNPDLKRFPQFRKAQRHAVTLSPGQVLFVPRHWWHYVESIDPVTVSINSWIELEEDHLARVEEAITRMLVCALKTAENPQNTRAWLNPTEVEETSHAVNCCYLNAAVSAFFDRCRTSEVVEIQALRTDGEHMKKEELNVCNHMEVGQTGSQNLTTGTDKPEAASPFGPDLVPVAQRSEEPPSERGGIFGSDGKDFVDKDGEHFGKLHCAKRQQIMSNSENAIEEQIASNTTTTPQTFISTDDLLDCLVNPQVTRIVAQLLIQGRSL	not soluble
MGEAAKDQTEEVIQAWYLDNKEEDQKLPHHKDPKEFVSLDKLAELGVLCWRLDADNYETDEELKRIRESRGYSYMDLCEVCPEKLPNYEEKVKMFFEEHLHIDEEIRYCLAGSGYFDVRDLNDIWIRVWVKKGGLIVFPAGIYHRFTVDSDNYMKAMRLFVGGPVWTAYNRPHDHLPARKAYMKKFLKVIGDRNIDASA	soluble
GSHMIKVLSPAKINLGLWVLGRLPSGYHEILTLYQEIPFYDEIYIREGVLRVETNIGIPQEENLVYKGLREFERITGIEINYSIFIQKNIPPGAGLGGGSSNLAVVLKKVNELLGSPLSEEELRELVGSISADAPFFLLGKSAIGRGKGEVLEPVETEISGKITLVIPQVSSSTGRVYSSLREEHFVTPEYAEEKIQRIISGEVEEIENVLGDIARELYPEINEVYRFVEYLGFKPFVSGSGSTVYFFGGASEELKKAAKMRGWKVVELEL	soluble
LKFGTSWKEAYGTGWLIDWKDVKQDNKFTAYLATNLHVADSLRNKDDYKPYNKDGNQKEFLPGDITTEFSLGKYIDA	not soluble
MTGSQVIDAEEDRHKLVVEYKDALQPADFYHNFKQRGIRSVQLIPYLEFDDRGDLTAASVTAELWGKFLIALFECWVRADISRISIELFDATLQKWCGSENPQPRCDCQACDWHRLCPHARQETPDSVLCAGYQAFYSYSAPHMRVMRDLIKQHRSPMELMTMLR	not soluble
MGSDKIHHHHHHMFQPLLDAFIESASIEKMVSKSPPPPLKIAVANWWGDEEIKEFKKSVLYFILSQRYAITLHQNPNESSDLVFSNPLGAARKILSYQNTKRVFYTGENESPNFNLFDYAIGFDELDFNDRYLRMPLYYAHLHYEAELVNDTTAPYKLKDNSLYALKKPSHHFKENHPNLCAVVNDESDLLKRGFASFVASNANAPMRNAFYDALNSIEPVTGGGSVRNTLGYKVGNKSEFLSQYKFNLCFENSQGYGYVTEKILDAYFSHTIPIYWGSPSVAKDFNPKSFVNVHDFNNFDEAIDYIKYLHTHPNAYLDMLYENPLNTLDGKAYFYQDLSFKKILDFFKTILENDTIYHNNPFIFYRDLHEPLISIDDLRVNYDDLRVNYDDLRVNYDDLRVNYDDLRVNYDDLRVNYDDLRVNYDDLRVNYDDLRVNYDDLRVNYDRLLQNASPLLELSQNTTFKIYRKAYQKSLPLLRTIRRWVKK	not soluble
MGSDKIHHHHHHMPGNSSGVAAVERAVSMLEAFTDVDYSLTLGELARRTELDKSTVLRIARSLAKSSMLVRNDDASWRLGPKLVRLGGLYQSTFKSSAIVEPLLAQISDESGESAAVYVKEGVVRVCLHRHDSTQSIRHSARVGDAMPLDRGAPGRVILAFTGSSGKLYDDIRAKGFHVTIGERDPQVASVAVPVYRDGQALFGSLALTGPPSRFNEEAVSKNLEILRVAARKLSAALGGDPG	not soluble
MARMLTAADVEAAGGKLILAAGDRLTPLARDRARELGIVVEAAGLSSGVSTPSASPTSTSAPVVKSPLAAPAPAPVPAARPATPVAPPAATGSRPLALPPSGALYRRNALGPSAQSSRAVDGRPKAGVVGAGHVGAMTALRLAESDLFSEVALVDVVPGLAAGLALDMWHGAGLYGFSTRLSGSDDLVALAGAEYIVITAGKPRQPGMSRTDLTVVNAEIMTSVCRGIRTHAPNSTLVIVSNPLEEMTHLAAQQTGFPEERVLGMAGVLDSARFCALVGLTGKARPQEVRAVALGSHGPEMVIPLSQAFVGDRPIESMFDAETLKALVERARESGGEVVKLLQKGSAYFSPAESAVTMVRAMVRDSGEVIAACVRSRGAYGAVDTRVGLPVRLHRRGLKEIVPLTLRPAEQQALQDAAARIAARIAELPAPC	not soluble
MKVGGIEDRQLEALKRAALKACELSYSPYSHFRVGCSILTNNDVIFTGANVENASYSNCICAERSAMIQVLMAGHRSGWKCMVICGDSEDQCVSPCGVCRQFINEFVVKDFPIVMLNSTGSRSKVMTMGELLPMAFGPSHLN	soluble
MSPIDQVLAAACALDASGKAPSLALIKSRLGNKFPMPILIQGLQQFKSMPKAERERLAALSIPEVEEQKPTEPVPLSVTTLAAQLTELQKGFEQAIALKNTEIMQLTNELIELKQRVNQLELQGKSV	soluble
MSLKRTAEEIKQEVKSLSQQALDAVKKHTHSPEGVKELLNFMSRFPERSFRNQLLIEEQFPGATACLGRAALKKEGIYIKKGEQGNKIFVRKTVKGFYEKGRGFVRETEATPEDKKRIKSGQIEVIKKPYYTIEKVFDITQTQLKPEDYPKIFPNRVFDFQLDAKGQSELQAGIQAVANNIGIQIRDMTESEEGHHHHHH	soluble
MMVIGRLGAGKSFATKLRLVRRAMFDEDTVVIMLDPMRGFAGVNEALDGERITVGGRRGLNPLEIKPTPDHVLQEVDDIDPWGEQINWVMTFFATFFEHVADHPLGERNQTLRRAVQEAYEKRGITRDPETHTRDSPTIHDVITVLEEMVEDPEEYGYVTDGEQEAVQSDAQSLLKDLRPSFREGGELENLARPSEFDLDSKVIYLDLHQEEGTRGRAETSLMMQVLFNSVYERVKQTDKRVVFCIDEAHYLMNDAVSLDFLETAVRHSRHFDLSLEFITQTGGEFALTPEARTIANLCSLTVLHRVNEEKEKIAKWF	not soluble
MGSDKIHHHHHHADVRMPLIFGDHMVLQQDTKIAIFGWADAGETVEVVFAGQKVKTTADTDGTWRVNLKPIKTKKEGQTLTIAGKNKLVYSDVLVGDVWVASGQSNMEWGIKVRKEYADDISASEDPLLRLFFVPKNTSLEPLTDIEVPQGTSNPERAARWVLCTPEMLAKINGQGFSATAYYFARDMRAANGRPLGVIQSAWGGTRAEAWTSLSGLKQEPALAHYVAAYEKNVKDNPEILATYPQKQKEFDEAVREWDKTVGKEWNQAQKEWAIAVQAAQAAGKPAPPKPQPSVPRPPNPRKPNGGNNGPSNLFNAMISPLIPLSIKGVIWYQGEFNSGGSGKEYATLFSRMITDWREKWGIGDFPFVYVQLPNFEPVDPEPSVEGNGWRWVREGQLKALNLPNTAMAVTIDVGDPFDLHPVDKYDVGHRLALAARKLAYGEKIVGMGPLYKKMSVKGNKIILEFTNQGKKLVMGTSPYIPAGKPPHPKPTKLTGFGIAGADRKFVWADAVIEGNKVIVSSSEVAVPLAVRYGFSNSPRCNLYNEKGLPASPFRTDSWDK	not soluble
MERKISDEECPVRKSMQIFAGKWTLLIIFQINRRIIRYGELKRAIPGISEKMLIDELKFLCGKGLIKKKQYPEVPPRVEYSLTPLGEKVLPIIDEIAKFGMENL	soluble
MGKRMTFDTAKSRFQEKFPHLELLEFSGIYKPSSVRCPTHGVVQLLYYDTAIKSKYGCPECGKLKMKENTPPQNQKPVSILDTATGETLTFPSVQAAAKALNTPYGSIRTKLDGRSNPDNLVCNRYKVLL	soluble
MGSDKIHHHHHHMRITSIFLFTIIIFGGLSCSNDDSLIHNKTKGILEKYPEPTVTITAHNHIPFLAKNILEEKAITKSVNIISDIAWANGFGRTITARSDEMVIPDNMNRYIYPGSILEASSIAETRFTPIPVKNNPVHVSVSFPAKKVGGTIKEPSLLNIRQFVMDLMQQNNIGKQSATLSFDVQKFVSYDELKMTFGSNENTGLLFWGTSSAQYQNKYRIIRSSGLCIKFIQKYFTLDMDIPSNGLISGTIPGGYSPVYVSSIAYGRIGILTLETNYDYEKANKLVKETFNSLFINKNNTLTKEQEAFFNSAEMKVFIAGGSGVTGVKTIGGIKEFTNYITEGGEFSASSPGKPIFCSFANYSDDSPYRINFKIDIDSDPVYARLEYDITKDVSGGNVKSWYTDANVYLRFYADKACSIKTIAQNYIGFNINRLILQQYVGPNYSVSKAREVKLDQNLTFHNQTKGIEYPIAYGHRMTETIGTTYLDRGNWTNDHFYLRAGKFYQVRPPINMKYTCFIDYHNQNEYDCSDFE	not soluble
MAYKVYLKDLADVDDGSRCESSSILTQNQPTTIASSGFVMSNPNVKSPSLPSSATNWNSEYSVTEPTMSPADQILKDSVARKKRSMVDLTELNQLYGKGYKPPAPSARTPPTIYENLAINAPSSPSATDASSVPLTFIEKHHEFKKLVPSGTDGRFELFLKVADCFD	not soluble
PSKKNGRSGPQPHKRWVFTLNNPSEDERKKIRDLPISLFDYFIVGEEGNEEGRTPHLQGFANFVKKQTFNKVKWYLGARCHIEKAKGTDQQNKEYCSKEGNLLMECGAPRSQGQR	soluble
QGLVPQGQTQVLQGGNKVPVVNIADPNSGGVSHNKFQQFNVANPGVVFNNGLTDGVSRIGGALTKNPNLTRQASAILAEVTDTSPSRLAGTLEVYGKGADLIIANPNGISVNGLSTLNASNLTLTTGRPSVNGGRIGLDVQQGTVTIERGGVNATGLGYFDVVARLVKLQGAVSSKQGKPLADIAVVAGANRYDHATRRATPIAAGARGAAAGAYAIDGTAAGAMYGKHITLVSSDSGLGVRQLGSLSSPSAITVSSQGEIALGDATVQRGPLSLKGAGVVSAGKLASGGGAVNVAGGGAV	soluble
MHHHHHHSSGVDLGTENLYFQSMASGANFEYIIAEKRGKNNTVGLIQLNRPKALNALCDGLIDELNQALKIFEEDPAVGAIVLTGGDKAFAAGADIKEMQNLSFQDCYSSKFLKHWDHLTQVKKPVIAAVNGYAFGGGCELAMMCDIIYAGEKAQFAQPEILIGTIPGAGGTQRLTRAVGKSLAMEMVLTGDRISAQDAKQAGLVSKICPVETLVEEAIQCAEKIASNSKIVVAMAKESVNAAFEMTLTEGSKLEKKLFYSTFATDDRKEGMTAFVEKRKANFKDQ	soluble
FDVERKAAPAIAESDLRVASFNVLNYFTSVADSGNNNPTGQNRGATNHDEFLIQQAKIVSAMNKMDADIIGLMEVENNGFGDGSAVQNLVDALNAEIDDADDHYTYVEIADKDKYQEEYFGSDAIMVAILYRAKVVTPKEAAKVIFTPEQHIAENTITRKDGAESNPAYDKYQRHSLLQTFTVQESGEDLSIVVNHFKSKGSECIEEWIAGVEDSEPADLQGNCNNFRVSAAHAVGEALKDVKGDVLLMGDLNAYGMEDPLLTLTDYSKEKYGRDIYTAGYTTINGGELQVEQTQIKQGYGLNNLNTLLHGTDTFSYTYSGELGNLDHALASNSLAQKVVAIEDWHINSLESNLFEYGSKYTGDMPKYKDAFSASDHDPVIIAIDLPDTDIDLP	not soluble
